Our source for the MFIr and MFI ratio values is US20180306791A1 (GlaxoSmithKline, published 2018).

For test [1], the target named is T1, BCMA (human, UniProt Q02223 1-184).
T1 construct: whole, on cells; Endogenous on human cell lines and patient cells, or from plasmid pCDNA3.1 hBCMA in ARH-77 cells; also called CD269; TNFRSF17
T1 sequence (looked up): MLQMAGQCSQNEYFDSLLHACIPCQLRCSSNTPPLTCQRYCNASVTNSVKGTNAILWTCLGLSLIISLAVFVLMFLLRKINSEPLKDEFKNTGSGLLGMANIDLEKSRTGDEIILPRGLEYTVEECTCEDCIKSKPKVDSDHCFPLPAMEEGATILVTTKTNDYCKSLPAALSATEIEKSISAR
The test can be described thus: flow cytometry on JIM3 cells (sheet group MODERATE); ratio of MFI to isotype IgG2a-488.

The target of test [2] is T1, BCMA. The test can be described thus: flow cytometry on OPM2 cells (sheet group MODERATE); ratio of MFI to isotype IgG2a-488.
Test [3] deals with T1, BCMA. The test can be described thus: flow cytometry on U266 cells (sheet group MODERATE); ratio of MFI to isotype IgG2a-488.
For test [4], the target named is T1, BCMA. The test can be described thus: flow cytometry inset, low BCMA-transduced (LOW) ARH77 cells; ratio to isotype control.
For test [5], the target named is T1, BCMA. The test can be described thus: flow cytometry on MM1.s cells (sheet group MODERATE); ratio of MFI to isotype IgG2a-488.
For test [6], the target named is T1, BCMA. The test can be described thus: flow cytometry inset, high BCMA-transduced (HIGH) ARH77 cells; ratio to isotype control.
Test [7] addresses T1, BCMA. The test can be described thus: flow cytometry on Daudi cells (non-MM line; group LOW); ratio of MFI to isotype IgG2a-488.
The target in test [8] is T1, BCMA. The test can be described thus: flow cytometry on RPMI8226 cells (printed RPM18226; group LOW); ratio of MFI to isotype IgG2a-488.
For test [9], the target named is T1, BCMA. The test can be described thus: flow cytometry on JJN3 cells (printed JIN3 on the sheet; group MODERATE); ratio of MFI to isotype IgG2a-488.
Test [10] deals with T1, BCMA. The test can be described thus: flow cytometry inset, non-transduced (NT) ARH77 cells with negligible surface BCMA; ratio to isotype control.
Test [11] concerns the target T1, BCMA. The test can be described thus: flow cytometry, CD138+ gated bone marrow cells of patient GSK064 (group LOW); ratio of MFI to IgG2a-488 control.
The target in test [12] is T1, BCMA. The test can be described thus: flow cytometry, CD138+ gated bone marrow cells of patient GSK072 (group LOW); ratio of MFI to IgG2a-488 control.
Test [13] addresses T1, BCMA. The test can be described thus: flow cytometry on H929 cells (sheet group HIGH); ratio of MFI of BCMA stained to isotype IgG2a-488 stained cells.
The target of test [14] is T1, BCMA. The test can be described thus: flow cytometry, CD138+ gated bone marrow cells of patient GSK039 (group HIGH); ratio of MFI to IgG2a-488 control.
The target of test [15] is T1, BCMA. The test can be described thus: flow cytometry, CD138+ gated bone marrow cells of patient GSK048 (group HIGH); ratio of MFI to IgG2a-488 control.
Test [16] has as its target T1, BCMA. The test can be described thus: flow cytometry, CD138+ gated bone marrow cells of patient GSK034 (group MODERATE); ratio of MFI to IgG2a-488 control.
The target in test [17] is T1, BCMA. The test can be described thus: flow cytometry, CD138+ gated bone marrow cells of patient GSK045 (group MODERATE); ratio of MFI to IgG2a-488 control.
Test [18] has as its target T1, BCMA. The test can be described thus: flow cytometry, CD138+ gated bone marrow cells of patient GSK050 (group MODERATE); ratio of MFI to IgG2a-488 control.
Test [19] deals with T1, BCMA. The test can be described thus: flow cytometry on Raji cells (non-MM line, sheet group NEGATIVE for BCMA); ratio of MFI to isotype IgG2a-488; reflects absence of the target on these cells.
For test [20], the target named is T1, BCMA. The test can be described thus: flow cytometry on SUPT1 cells (non-MM line, sheet group NEGATIVE for BCMA); ratio of MFI to isotype IgG2a-488; reflects absence of the target on these cells.
The target in test [21] is T1, BCMA. The test can be described thus: flow cytometry on KMM1 cells (sheet group NEGATIVE, text: low BCMA expression); ratio of MFI to isotype IgG2a-488; reflects the low level of the target on these cells.
The target in test [22] is T1, BCMA. The test can be described thus: flow cytometry of CD138+ cells of patient GSK048; number in the title of panel II. How it is done: (§1) FIG. 14: J6M0-MMAF activity on primary CD138+ cells. (A) BM MNCs from one representative patient (GSK 087) with moderate BCMA expression incubated with J6M0-MMAF. Viable CD138+ cells (percentage of control) after 2 and 6 days (left panel) obtained by analyzing CD138+ cells by flow cytometry and gating CD138+ fraction (middle panel) onto AnnexinV/PI dot-plot (right panel). (B) Four representative experiments showing viable CD138+ cells after culture of BM MNCs from myeloma patients with concentrations of J6M0-MMAF at varying time points. For each patient, histogram showing binding of J6M0-wtFc PE to CD138+ cells (black) compared to cells pre-incubated with Fc block as control (white) and where available IHC staining with MIB1 (pink, nuclear) and CD138 (membrane, brown) as a measure of plasma cell proliferation.
(§2) For assessment of surface BCMA expression, murine anti-BCMA (clone 5307118G03, conjugated to AlexaFluor488), and the humanised antibody, J6M0-wtFc conjugated to PE were used in parallel. In the case of primary MM cells, staining was carried out on bone marrow (BM) mononuclear cells (MNCs) in 100μl PBS (Lonza)/0.5% BSA(PAA), using anti CD138 APC (Miltenyi), to identify tumour cells. […] A semi-quantitative measure of BCMA surface expression on MM cells was obtained from the ratio of the MFI of anti BCMA, versus isotype control stained samples (MFI ratio).

Test [23] concerns the target T1, BCMA. The test can be described thus: flow cytometry of CD138+ cells of patient GSK087; number in the title of panel IV. On the procedure: as §1, §2
The target of test [24] is T1, BCMA. The test can be described thus: flow cytometry of CD138+ cells of patient GSK085; number in the title of panel III. On the procedure: as §1, §2

B1: S307118G03 (antibody, from another filing, mouse IgG2a, V domains shown)
VH: EVQLQQSGPELVKPGASVKISCKASGYTFTDYYMKWVKQSHGKSLEWIGEIYPNNGGITYNQKFKGKATLTVDKSSSTAYMELRSLTSEDSAVYYCANGYEFVYWGQGTLVTVSA
VL: DIQMTQTASSLSASLGDRVTISCSASQGISNYLNWYQQKPDGTVKLLIYYTSSLHSGVPSRFSGSGSGTDYSLTISNLEPEDIATYYCQQYSKLPWTFGGGTKLEIKR
As to B1, the MFIr with BCMA [1] came to 5.7; in the test with BCMA [2] it was 4.5; in the test with BCMA [3], 5.8; in the test with BCMA [4], 16.6; with BCMA [5] it was 6.8; with BCMA [6], 54.8. Besides, the MFIr in the test with BCMA [7] came out at 2.9; with BCMA [8], 2; with BCMA [9], 4.6; with BCMA [10] it was 1.8; in the test with BCMA [11], 2.5; with BCMA [12], 2. Moreover, the MFIr with BCMA [13] turned out to be 15.3; with BCMA [14] it was 11.2; in the test with BCMA [15] it was 11.2; with BCMA [16], 4.8; in the test with BCMA [17], 3.8; with BCMA [18], 6. The MFIr in the test with BCMA [19] was 1.2; in the test with BCMA [20], 1; with BCMA [21], 1.1.

B2: J6M0-wtFc (antibody, IgG1, V domains shown)
VH: QVQLVQSGAEVKKPGSSVKVSCKASGGTFSNYWMHWVRQAPGQGLEWMGATYRGHSDTYYNQKFKGRVTITADKSTSTAYMELSSLRSEDTAVYYCARGAIYDGYDVLDNWGQGTLVTVSS
VL: DIQMTQSPSSLSASVGDRVTITCSASQDISNYLNWYQQKPGKAPKLLIYYTSNLHSGVPSRFSGSGSGTDFTLTISSLQPEDFATYYCQQYRKLPWTFGQGTKLEIKR
notes: PE-conjugated for flow cytometry; no sentence says it outright; also called J6M0-wtFc PE; wild type Fc form of J6M0
In the case of B2, the figures for the MFI ratio with BCMA [22], in the test with BCMA [23] and with BCMA [24] were 16.7, 7 and 3.65, respectively.
